Test system: mouse GPV with point mutation R476A in the thrombin cleavage site (Gp5^dThr platelets)
Sequence (chain, as listed by the source R476A): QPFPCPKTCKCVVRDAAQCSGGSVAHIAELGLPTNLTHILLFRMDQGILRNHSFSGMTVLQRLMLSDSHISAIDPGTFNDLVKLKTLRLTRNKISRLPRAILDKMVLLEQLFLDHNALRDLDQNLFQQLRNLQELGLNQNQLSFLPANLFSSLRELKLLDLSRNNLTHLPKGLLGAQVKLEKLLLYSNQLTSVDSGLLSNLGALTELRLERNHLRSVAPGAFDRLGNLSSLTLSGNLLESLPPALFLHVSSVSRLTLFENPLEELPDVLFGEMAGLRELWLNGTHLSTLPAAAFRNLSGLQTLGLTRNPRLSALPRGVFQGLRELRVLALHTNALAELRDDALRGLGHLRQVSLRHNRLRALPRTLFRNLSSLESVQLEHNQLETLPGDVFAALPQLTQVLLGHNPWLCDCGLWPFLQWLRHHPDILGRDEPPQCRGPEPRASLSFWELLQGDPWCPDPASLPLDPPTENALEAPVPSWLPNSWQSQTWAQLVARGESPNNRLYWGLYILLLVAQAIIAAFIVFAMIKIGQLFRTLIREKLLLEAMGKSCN

Substance: human thrombin (Roche, Sigma-Aldrich #10602400001)
- cleavage of GPV by thrombin (sGPV ELISA, flow cytometry): GPV was completely resistant to cleavage by thrombin
